Kd data for four molecules are collected here from publication PMC8246079 (Chemical Science, 2021).

Where two headings read alike, the source gives them in different places. Non-standard residues stand in square brackets, D forms with d. No end group written: not given here. Lys(Me3) = C[N+](C)(C)CCCC[C@H](N)C(=O)O

Holding throughout (test): ITC
(In general: ITC needs no label: the signal is the heat of the interaction.)

Assay [1] concerns the target BPTF PHD domain Y23M.
Assay [2] concerns the target DIDO1 (death inducer obliterator 1) PHD domain, wild type.
For assay [3], the target named is TAF3 PHD domain M900Q/M907Q with norleucine in place of M882 (Nle mutant) (UniProt Q5VWG9).
In assay [4] the target is TAF3 PHD domain M900Q/M907Q with selenomethionine in place of M882 (SeMet mutant) (UniProt Q5VWG9).
Assay [5] addresses TAF3 PHD domain M900Q/M907Q (the paper's wild-type construct) (UniProt Q5VWG9).
The target of assay [6] is T1, DIDO1 (death inducer obliterator 1) PHD domain, wild type (UniProt Q9BTC0 266-325).
T1 sequence: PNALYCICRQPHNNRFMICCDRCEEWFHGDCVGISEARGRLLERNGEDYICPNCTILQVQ

Assay [7] deals with BPTF PHD domain Y23M. This is another data set of the same source.
Assay [8] concerns the target TAF3 PHD domain M900Q/M907Q with norleucine in place of M882 (Nle mutant) (UniProt Q5VWG9). This is another data set of the same source.
Assay [9] has as its target TAF3 PHD domain M900Q/M907Q with selenomethionine in place of M882 (SeMet mutant) (UniProt Q5VWG9). This is another data set of the same source.
For assay [10], the target named is DIDO1 PHD domain with selenomethionine in place of methionine (SeMet mutant) (UniProt Q9BTC0).
Assay [11] deals with TAF3 PHD domain M900Q/M907Q (the paper's wild-type construct) (UniProt Q5VWG9). This is another data set of the same source.
The target in assay [12] is TAF3 PHD domain M882A (UniProt Q5VWG9).
Assay [13] addresses DIDO1 PHD domain M35C (UniProt Q9BTC0).

The term Kd denotes the constant that tells how readily two partners part at equilibrium. Read a low Kd as tighter binding. Take “Histone H3 peptide with tert-butyl norleucine in place of K4 (H3K4tBuNle 1-13, with a C-terminal Tyr)”: the Kd worked out at 7.48 µM in assay [1] and 2.9 µM in assay [2].

Turning to “histone H3 tail peptide with tert-butyl norleucine in place of K4me3 (H3K4tBuNle), ARTX… with X = tBuNle”, the figures for the Kd in assay [3], in assay [4] and in assay [5] were 13.7 µM, 8.3 µM and 10.7 µM, respectively.

B1: histone H3 tail peptide trimethylated at K4 (H3K4me3), ARTXQTARKSTGGY with X = Kme3 (peptide)
peptide: ART[Lys(Me3)]QTARKSTGGY
With B1, in assay [6], the Kd came to 2.28 µM. This counts as single-digit micromolar.

B2: histone H3 tail peptide trimethylated at K4 (H3K4me3), ARTX… with X = Kme3 (peptide)
peptide: ART[Lys(Me3)]QTARKSTGGY
B2: the Kd in assay [7] stood at 7.5 µM; in assay [8], 1.7 µM; in assay [9] it was 0.84 µM; in [10] it was 4.2 µM; in [11], 1.05 µM; in assay [12], 120 µM. In assay [13], the Kd was determined as 36 µM.
